Measurements: patent publication US20230250158A1 (TALEM THERAPEUTICS, published 2023)
Read-outs that look alike come from different tables or passages of the source.

Assays:
[1] = target: SARS-CoV-2 Spike protein on VSV pseudotyped virus particles (Wuhan-1 isolate Spike sequence) (SARS-CoV-2, UniProt P0DTC2 13-1273); assay: cell-based or functional assay
Wuhan-1 = assay: flow cytometry on Spike-transfected HEK293F cells, heat map
SARS-CoV-2 Spike RBD-hFc [2] = target: T1, SARS-CoV-2 Spike RBD-hFc (SARS-CoV-2, UniProt P0DTC2 319-541); assay: Octet BLI; Fab as analyte over RBD-hFc on AHC sensors; 1:1 kinetic fit
SARS-CoV-2 Spike S1-hFc [3] = target: T2, SARS-CoV-2 Spike S1-hFc (SARS-CoV-2, UniProt P0DTC2 16-685); assay: Octet BLI; Fab as analyte over S1-hFc on AHC sensors; 1:1 kinetic fit
SARS-CoV-2 Spike RBD-hFc [4] = target: T1, SARS-CoV-2 Spike RBD-hFc
SARS-CoV-2 Spike S1-hFc [5] = target: T2, SARS-CoV-2 Spike S1-hFc
[6] = target: SARS-CoV-2 Spike on SARS-CoV2-S CHO-K1 cells (wild-type, Wuhan-1) (SARS-CoV-2, UniProt P0DTC2 13-1273); assay: flow cytometry on SARS-CoV2-S CHO-K1 cells, anti-human IgG-PE detection
SARS-CoV-2 Spike RBD-hFc [7] = target: T1, SARS-CoV-2 Spike RBD-hFc; assay: Octet, Fab as analyte over RBD-hFc on AHC sensor
SARS-CoV-2 Spike RBD-hFc [8] = target: T1, SARS-CoV-2 Spike RBD-hFc; assay: Octet BLI; Fab as analyte over RBD-hFc on AHC sensors; steady-state analysis

Row | Binder | Pseudovirus IC50 [1] [µg/mL] | also measured
1 | 22-E8 (antibody, V domains shown) VH: QVQLVQSGAEVKKPGSSVKVSCKASGGTFSSYAISWVRQAPGQGLEWMGGIIPIFGTTNYAQKFQGRVTITADESTSTAYMELSSLRSEDTAVYYCARDHGYYYGMDVWGQGTTVTVSS VL: QSVLTQPSSVSAAPRQRVTLSCSGGDSNIGQNGVNWYLHVPGKAPRLVVYYDYLVSAGMSARFSGSRSGTSASLAISGLQSEDEGVYYCASWDDSLSAWVFGGGTKLTVL | 11.2 | 
2 | 23-H7 (antibody, V domains shown, also called bin 2) VH: QVQLVQSGAEVKLPGASMKVSCKASGYTFSTYYMHWVRQAPGQGPEWMGVIDPSGGTTSYAQKFHDRIAMTRDTSTSTAYLELSSLRSEDMAVYYCARGGFADAVDYWGQGTLVTVSS VL: NFMLTQPHSVSGSPGKTVTISCTRNSGSIAGNYVQWYQQRPGSAPTTVIYEDNQRPSGVPDRFSGSIDSSSNSASLTISGLKTEDEADYYCQSYDASHLHVIFGGGTKVTVL | 0.84 | binding result (Wuhan-1): binds
3 | 23-H7 Fab (Fab, V domains shown) VH: QVQLVQSGAEVKLPGASMKVSCKASGYTFSTYYMHWVRQAPGQGPEWMGVIDPSGGTTSYAQKFHDRIAMTRDTSTSTAYLELSSLRSEDMAVYYCARGGFADAVDYWGQGTLVTVSS VL: NFMLTQPHSVSGSPGKTVTISCTRNSGSIAGNYVQWYQQRPGSAPTTVIYEDNQRPSGVPDRFSGSIDSSSNSASLTISGLKTEDEADYYCQSYDASHLHVIFGGGTKVTVL |  | Kd (SARS-CoV-2 Spike RBD-hFc [2]): 13 nM; Kd (SARS-CoV-2 Spike S1-hFc [3]): 14 nM; Kd (SARS-CoV-2 Spike RBD-hFc [4]): 9 nM; Kd (SARS-CoV-2 Spike S1-hFc [5]): 6 nM
4 | 21-F2 (antibody, V domains shown) VH: QVQLVQSGAEVKKPGASVTVSCKTSGYIFTNYDINWVRQAPGQGLEWVGWVNPNSGKVGYAQKFQGRVIMTRSDSESTAYMELTNLTSDDTAVYYCARGHTDFWGQGTLVTVSS VL: QSVLTQPPSVSEAPRQRVTISCSGSSSNIGNNAVNWYQQLPGRAPKLLIYYDDLLPSGVSDRFSGSKSGTSASLAISGLQSEDEADYYCAAWDDSLNGVVFGGGTQLTVL | 0.84 | 
5 | 21-F2 optimized (antibody, V domains shown) VH: QVQLVQSGAEVKKPGASVTVSCKTSGYIFTNYDINWVRQAPGQGLEWVGWVNPNSGKVGYAQKFQGRVIMTRSDSESTAYMELTQLTSDDTAVYYCARGHTDFWGQGTLVTVSS VL: QSVLTQPPSVSEAPRQRVTISCSGSSSNIGNNAVNWYQQLPGRAPKLLIYYDDLLPSGVSDRFSGSKSGTSASLAISGLQSEDEADYYCAAWDDSLNGVVFGGGTQLTVL |  | binding result [6]: binds
6 | 22-D9 (antibody, V domains shown, also called bin 4) VH: QVQLVQSGAEVKKPGSSVNVSCKTSGGTFNTYSINWVRQAPGQGLEWMGEIIPIFDKPNYAQKFQGRVTITADESTSTAYMELTSLRSDDTAVYYCARGTGYYYGMDVWGQGTTVTVSS VL: QSVLTQPPSVSGAPRQTVTISCFGSRSNIGNYPVNWYHQVPGKAPKVVVYYDDLLPSGISDRFSGYKSGTSASLTISGLRSEDEADYYCATWDDSLNVWVFGGGTKLTVL | 4.99 | binding result (Wuhan-1): binds
7 | 22-D9 Fab (Fab, V domains shown) VH: QVQLVQSGAEVKKPGSSVNVSCKTSGGTFNTYSINWVRQAPGQGLEWMGEIIPIFDKPNYAQKFQGRVTITADESTSTAYMELTSLRSDDTAVYYCARGTGYYYGMDVWGQGTTVTVSS VL: QSVLTQPPSVSGAPRQTVTISCFGSRSNIGNYPVNWYHQVPGKAPKVVVYYDDLLPSGISDRFSGYKSGTSASLTISGLRSEDEADYYCATWDDSLNVWVFGGGTKLTVL |  | Kd (SARS-CoV-2 Spike RBD-hFc [7]): 160 nM; Kd (SARS-CoV-2 Spike RBD-hFc [8]): 163 nM
8 | 8-A2 (antibody, V domains shown) VH: QVQLVQSGAEVKKPGASVKVSCKASGYTFTGYYLHWVRQAPGQGLEWMGRINPNSGGTNYAQKFQGRVTMTRDTSISTAYMELSRLTSDDTAVYYCLAVAGTGGDAFDIWGQGTTVTVSS VL: DIQMTQSPSTLSASVGDRVTITCRASQSISSWLAWYQQKPGKAPKLLIYAASSLESGVPSRFSGSGSGTDFTLTISSLQPEDFATYYCQQGHSFPLTFGGGTKVDIK | > 42 | 
9 | 23-A11 (antibody, V domains shown) VH: QVQLVESGGGVVQPGRSLRLSCAASGFTFSSYGMHWVRQAPGKGLEWVAVISYDGSNKYYADSVKGRFTISRDNSKNTLYLQMNSLRAEDTAVYYCAKEGELRGAFDIWGQGTMVTVSS VL: SYVLTQPPSVSVAPGKTARITCGGDNIESKYVHWYQQKPGQAPVLVIYYDTDRPSGIPERFSGANSGNSATLTISRVEAGDEADYYCQVWDRTSGHFVFGPGTKVTVL | > 42 | 
10 | 21-H1 (antibody, V domains shown) VH: QVQLVESGGGVVQPGRSLRLSCAASGFTFSSYGMHWVRQAPGKGLEWVAVISYDGSNKYYADSVKGRFTISRDNSKNTLYLQMNSLRAEDTAVYYCAKEGELRGAFDIWGQGTTVTVSS VL: DIVMTQSPLSLPVTPGEPASISCTSSQSLLHSIGYNFVDWYLQKPGQSPQLLIYSASNRASGVPDRFSGSGSGTDFTLKISRVEAEDVGVYYCMQALQRTLYTFGQGTKVESK | > 42 | 
11 | 22-F7 (antibody, V domains shown, also called bin C) VH: QVQLVESGGGVVQPGRSLRLSCAASGFSFTNYGMHWVRQAPGKGLEWVAVISYDGSIKYYEDSLKGRFTVSRDNSKKTLYLQMNSLRAEDTAVYYCTRERGTGIDYWGLGTLVTVSS VL: QSALTQPASVSGYPGQSITLSCTGTKSDIGAYNYVSWYQQHPGKAPKLMVYDVSNRPSGLSNRFSGSKSDNTASLTISGLQAEDEAHYYCSSYTTSGTVVFGGGTKVTVL | 12.6 | 
12 | 2-A6 (antibody, V domains shown, also called bin S2) VH: QVTLRESGPALVKPTQTLTLTCTFSGFSLNTRGMSVSWIRQPPGKALEWLALIDWEDDKFYRTSLMTRLTISKDIFKNQVVLTMTNVDPVDTGTYYCARTYSVGVKYFGMDVWGQGTTVTVSS VL: SSELTQDPAVSVALGQTVRITCQGDSLRNYYASWYRQEPGQAPILLIYGGNYRPSGIPDRFSGSSSGNTASLTITGAQAEDEADYYCNSRDSSGNHVVFGGGTKLTVL | > 42 | 
13 | 27-A11 (antibody, V domains shown) VH: QVQLVQSGAEVKKPGASVKVSCKASGYTFTSYYMHWVRQAPGQGLEWMGIIDPSGGSTSYAQKFQGRVTLTRDTSTSTVYMELSSLRSEDTAVYYCARSRDGYIDDAFDIWGQGTLVTVSS VL: QSVLTQPPSVSAAPGQKVTISCSGSSSNIGNNYVSWYQQLPGTAPKLLIYDNNKRPSGIPDRFSGSKSGTSATLGITGLQTGDEADYYCGTWDSSLSAGVFGGGTKLTVL | 12.8 | 
14 | 24-B8 (antibody, V domains shown) VH: QVQLVQSGAEVKKPGSSVKVSCKASGGTFSNYAISWVRQAPGQGLEWMGGIIPILDTTNYAQKFQGRVTITADESTSTAYMELNSLRSEDTAVYYCVREEGFDYWGQGTLVTVSS VL: QSVLTQPSSLSASPGASASLTCTLRSGINVGAYNIYWYQQKPGSPPQFVLRYNSDSDNQQGSGVPSRFSGSKDASANAGILLISGLQSEDEAEYYCMIWRSSAWVFGGGTKLTVL | 6.26 | 
15 | 5-B6 (antibody, V domains shown) VH: QVQLVQSGAEVKKPGSSVKVSCKASGGTFSSYAISWVRQAPGQGLEWVGGIIPMFNSASYAQKFQGKVTITADKATNTAYMELSSLRSEDTAVYYCARESSGYYYVSNWFDPWGQGTLVTVSS VL: QSVLTQPSSVSGAPGQRVTISCTGSSSNIGAGYDVHWYQQIPGTAPRLLIYANSGRASGVPDRFSGSKSGTSASLAITGLQAEDEADYYCQSYDSSLSGVVFGGGTKLTVL | > 42 | 
16 | 11-H1 (antibody, V domains shown) VH: not shown VL: QSVLTQPPSVSEAPRQRVTISCSGSSSNIGNNAVNWYQQLPGQAPRLLIYYDNLLPSGVSDRFSASTSGTSASLAISDLRSEDEADYYCASWDDRLDSPVFGGGTKLTVL | > 42 | 
